Drawing on patent US20220064218A1 (Bicycle, published 2022), this text covers Ki for two molecules.

*1 amine or outer side, *2 acyl side, *3 side chain or, on linkers, in order; H or OH if unused. Bridges are numbered along the chain shown (N, C = ends). Where no end group is shown, it is not given here. TATA = O=C(CC[*:1])N1CN(C(=O)CC[*:2])CN(C(=O)CC[*:3])C1

This test has as its target T1, human CD38 (human, UniProt P28907 43-300, limits assumed).
T1 construct: also called hCD38
T1 sequence (looked up): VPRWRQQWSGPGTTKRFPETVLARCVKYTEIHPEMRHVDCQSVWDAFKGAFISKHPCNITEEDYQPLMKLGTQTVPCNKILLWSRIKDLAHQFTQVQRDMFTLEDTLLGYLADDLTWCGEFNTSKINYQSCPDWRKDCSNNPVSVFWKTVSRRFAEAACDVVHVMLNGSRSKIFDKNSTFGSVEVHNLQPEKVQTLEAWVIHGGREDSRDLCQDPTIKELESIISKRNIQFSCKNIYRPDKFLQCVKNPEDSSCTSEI
Put plainly: fluorescence polarisation competition with the labelled tracer peptide. On the technique in general: In fluorescence polarisation assays a small probe gives low polarisation when free and higher when bound to something large.

One may read the Ki as a measure of affinity in units of concentration, obtained from inhibition or displacement.

B1: 66-50-16-T01-N001 (peptide)
peptide: ACYWNPFTACWSCEND
modifications: linker 2-10-13 via TATA (inferred)
notes: Synthetic bicyclic peptide cyclised with TATA
Turning to B1, the Ki came to 90 nM.

B2: 66-50-19-T02-N001 (peptide)
peptide: ACYWNPFTACYSCTEN
modifications: linker 2-10-13 via TATA (inferred)
notes: Synthetic bicyclic peptide cyclised with TATA; also called 66-50-19-T002-N001
In turn, B2 returned a Ki of 316 nM.
